For 1 substance, abrogation of intracellular p24 expression, inhibition of CD4 downregulation (flow cytometry of MDC1/SEB-activated CD4+ T cells) and reduction in HIV-1 RNA content in the day 7 co-culture supernatants measured by qRT-PCR results are on record in patent publication US20220249653A1.

The test concerns the target CD40L (human) (UniProt P29965). The test is described as follows: cell-based or functional assay.
UniProt P29965, sequence (P29965 whole entry): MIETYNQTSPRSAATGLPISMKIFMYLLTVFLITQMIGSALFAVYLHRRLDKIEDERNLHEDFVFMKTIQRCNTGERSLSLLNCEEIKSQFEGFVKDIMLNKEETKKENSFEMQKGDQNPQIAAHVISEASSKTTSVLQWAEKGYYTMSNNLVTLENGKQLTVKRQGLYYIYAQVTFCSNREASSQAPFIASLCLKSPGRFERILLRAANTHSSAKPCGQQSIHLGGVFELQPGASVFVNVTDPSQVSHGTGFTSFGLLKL

In turn, “CD40L blocking antibody (clone MK13A4; Enzo Life Sciences Cat #ALX-805-037-C100)” returned an abrogation of intracellular p24 expression of 90.8%, an inhibition of CD4 downregulation (flow cytometry of MDC1/SEB-activated CD4+ T cells) of 87.7% and a reduction in HIV-1 RNA content in the day 7 co-culture supernatants measured by qRT-PCR of 94.1%.
